Assay results reported in patent US20110275569A1, “PROTEASES TARGETING AGENTS” (CONSIGLIO NAZIONALE DELLE RICERCHE, priority 2008, published 2011).

T1: carboxypeptidase Y (Saccharomyces cerevisiae, UniProt P00729)
T1 sequence (P00729 112-532): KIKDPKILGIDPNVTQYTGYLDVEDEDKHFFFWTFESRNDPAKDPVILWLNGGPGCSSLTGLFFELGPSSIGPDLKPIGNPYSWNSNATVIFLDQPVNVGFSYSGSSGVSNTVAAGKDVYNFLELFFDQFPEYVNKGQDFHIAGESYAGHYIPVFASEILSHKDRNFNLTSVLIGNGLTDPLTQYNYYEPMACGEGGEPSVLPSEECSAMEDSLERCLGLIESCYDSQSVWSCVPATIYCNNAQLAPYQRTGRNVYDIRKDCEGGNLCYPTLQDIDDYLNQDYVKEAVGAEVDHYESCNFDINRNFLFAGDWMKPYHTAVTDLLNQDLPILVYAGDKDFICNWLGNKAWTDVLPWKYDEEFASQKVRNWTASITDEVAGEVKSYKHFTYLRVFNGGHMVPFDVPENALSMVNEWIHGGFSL

B1: Sso0767: recombinant protease inhibitor protein from Sulfolobus solfataricus, PEBP family I51, monomer of 19.0 kDa, 157 amino acids (protein, listed as Sulfolobus solfataricus)
chain: MNSESIYSMRVVSSAFKNEDFIPIKYTCDGQDLSPELEWDLVTNAKSYAIIVEDPDAPGGTFIHWVIYNITTNRLPEGVPRLYKSQYGVQGVNDFGNIGYNGPCPPKTHPPHRYYFYVYAIDTILLEIKNINADKLKSLMEGHGIERGFVMGKYKRK
B2: TFS1: protein of the yeast, founder of the family I51, able to inhibit the carboxypeptidase Y (protein, UniProt P14306 1-219, looked up)
Carboxypeptidase Y inhibitor: MNQAIDFAQASIDSYKKHGILEDVIHDTSFQPSGILAVEYSSSAPVAMGNTLPTEKARSKPQFQFTFNKQMQKSVPQANAYVPQDDDLFTLVMTDPDAPSKTDHKWSEFCHLVECDLKLLNEATHETSGATEFFASEFNTKGSNTLIEYMGPAPPKGSGPHRYVFLLYKQPKGVDSSKFSKIKDRPNWGYGTPATGVGKWAKENNLQLVASNFFYAETK

Legend:
thrombin = experiment: Protease specificity panel: thrombin; type: biochemical
Method: (§1) To identify the biological function of the purified inhibitor Sso0767 (SsCEI), the ability to inhibit a number of proteases was tested. The set of the proteases examined includes: the alpha-chymotrypsin, trypsin, elastase, carboxypeptidase Y, subtilisin, thrombin and two thermophilic proteases, the kumamolisin-ac and pernisine. […] The specific interaction between the inhibitor and the target proteases was also examined by incubating Sso1273 in a reaction mixture containing all the proteases investigated. In these conditions, the catalytic performance of the inhibitor was identical to that observed by assaying each protease alone.

subtilisin = experiment: Protease specificity panel: subtilisin; type: biochemical
Method: as §1

porcine elastase = porcine elastase (Sus scrofa, UniProt P00772); experiment: Inhibition of porcine elastase by the S. solfataricus inhibitor; type: biochemical
Method: as §1
(§2) In Table II are reported Ki and IC50 values that are the average of 3-5 separate determinations.

trypsin = experiment: Protease specificity panel: trypsin; type: biochemical
Method: as §1

[1] = Stability of the purified inhibitor (heat, denaturants, digestive proteases); type: physicochemical
bovine α-chymotrypsin = bovine α-chymotrypsin (Bos taurus, UniProt P00766); experiment: Inhibition of bovine alpha-chymotrypsin by the S. solfataricus inhibitor; type: biochemical
Method: as §1
The inhibition of Sso1273 (SsCEI) versus α-chymotrypsin followed a hyperbolic pattern with increasing concentrations of the inhibitor and the IC50 value (50% inhibitory concentration) was 0.10 μM (Table II).
The reciprocals of the rate of the substrate hydrolysis for each inhibitor concentration were plotted against the reciprocals of the substrate concentrations. Ki was determined from the formula as per the competitive type of inhibition.
as §2

carboxypeptidase Y [2] = target: T1, carboxypeptidase Y; experiment: Protease specificity panel: carboxypeptidase Y; type: biochemical
Method: as §1

carboxypeptidase Y [3] = target: T1, carboxypeptidase Y; conditions: read-out: inhibition constant, carboxypeptidase Y; cited from earlier work

Sequence of porcine elastase (P00772 27-266): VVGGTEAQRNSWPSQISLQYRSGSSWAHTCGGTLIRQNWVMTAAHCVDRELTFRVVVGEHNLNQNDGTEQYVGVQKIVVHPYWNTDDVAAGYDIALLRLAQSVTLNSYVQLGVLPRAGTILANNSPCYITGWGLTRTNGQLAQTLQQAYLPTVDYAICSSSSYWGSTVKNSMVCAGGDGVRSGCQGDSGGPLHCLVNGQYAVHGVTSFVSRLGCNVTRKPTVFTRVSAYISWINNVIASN

Row | Molecule | effect on thrombin (thrombin) | effect on subtilisin (subtilisin) | inhibition activity versus elastase (in words) (porcine elastase) | effect on trypsin (trypsin) | resistance to common protein denaturants [1] | thermostability: inhibitory activity after incubation ([1]; 4 days at 90° C.) | resistance to digestive proteases ([1]; several digestive proteases) | inhibition activity toward α-chymotrypsin (in words) (bovine α-chymotrypsin) | type of inhibition of α-chymotrypsin (bovine α-chymotrypsin; Lineweaver-Burk reciprocal plot) | effect on carboxypeptidase Y (carboxypeptidase Y [2]) | Ki (carboxypeptidase Y [3]) [nM]
1 | B1 | not affected | not affected | clear activity | not affected | high resistance | no reduction in inhibitory activity | resistant | best target protease among those tested | competitive inhibitor | not affected | –
2 | B2 | – | – | – | – | – | – | – | – | – | – | 1.8
